# Measurements reported in patent US20240270846A1 (published 2024).
# Changes are numbered by the printed parent chain. Names may count otherwise.
# B1: CE115HA000 K52W one-arm antibody (antibody, human IgG1, kappa, L234A L235A, N297A, name in Kabat numbering)
# heavy: QVQLVESGGGVVQPGRSLRLSCAASGFTFSNAWMHWVRQAPGKGLEWVAQIWAKSNNYATYYAESVKGRFTISRDDSKNSLYLQMNSLKTEDTAVYYCRYVHYGAYYGVDAWGQGTTVTVSSASTKGPSVFPLAPSSKSTSGGTAALGCLVKDYFPEPVTVSWNSGALTSGVHTFPAVLQSSGLYSLSSVVTVPSSSLGTQTYICNVNHKPSNTKVDKKVEPKSCDKTHTCPPCPAPEAAGGPSVFLFPPKPKDTLMISRTPEVTCVVVDVSHEDPEVKFNWYVDGVEVHNAKTKPREEQYASTYRVVSVLTVLHQDWLNGKEYKCKVSNKALPAPIEKTISKAKGQPREPQVYTLPPSRCELTKNQVSLSCAVKGFYPSDIAVEWESNGQPENNYKTTPPVLDSDGSFFLVSKLTVDKSRWQQGNVFSCSVMHEALHNHYTQKSLSLSPDYKDDDDK
# chain: EPKSSDKTHTCPPCPAPELLGGPSVFLFPPKPKDTLMISRTPEVTCVVVDVSHEDPEVKFNWYVDGVEVHNAKTKPREEQYNSTYRVVSVLTVLHQDWLNGKEYKCKVSNKALPAPIEKTISKAKGQPREPQVCTLPPSRDELTKNQVSLWCLVKGFYPSDIAVEWESNGQPENNYKTTPPVLDSDGSFFLYSKLTVDKSRWQQGNVFSCSVMHEALHNRYTQKSLSLSP
# light: DIVMTQSPLSLPVTPGEPASISCRSSQSLVHSNRNTYLHWYQQKPGQAPRLLIYKVSNRFSGVPDRFSGSGSGTDFTLKISRVEAEDVGVYYCGQGTQVPYTFGQGTKLEIKRTVAAPSVFIFPPSDEQLKSGTASVVCLLNNFYPREAKVQWKVDNALQSGNSQESVTEQDSKDSTYSLSSTLTLSKADYEKHKVYACEVTHQGLSSPVTKSFNRGEC
# notes: one-arm antibody
# B2: CE115HA000 K52bY one-arm antibody (antibody, human IgG1, kappa, L234A L235A, N297A, name in Kabat numbering)
# heavy: B1 heavy with W52K, K54Y
# chain: B1 chain
# light: B1 light
# notes: one-arm antibody
# B3: CE115HA000 N53G one-arm antibody (antibody, human IgG1, kappa, L234A L235A, N297A, name in Kabat numbering)
# heavy: B1 heavy with W52K, N56G
# chain: B1 chain
# light: B1 light
# notes: one-arm antibody
# B4: CE115HA000 K52bR one-arm antibody (antibody, human IgG1, kappa, L234A L235A, N297A, name in Kabat numbering)
# heavy: B1 heavy with W52K, K54R
# chain: B1 chain
# light: B1 light
# notes: one-arm antibody
# B5: CE115HA000 K52bS one-arm antibody (antibody, human IgG1, kappa, L234A L235A, N297A, name in Kabat numbering)
# heavy: B1 heavy with W52K, K54S
# chain: B1 chain
# light: B1 light
# notes: one-arm antibody
# B6: CE115HA000 N31G one-arm antibody (antibody, human IgG1, kappa, L234A L235A, N297A, name in Kabat numbering)
# heavy: B1 heavy with N31G, W52K
# chain: B1 chain
# light: B1 light
# notes: one-arm antibody
# B7: CE115HA000 N31I one-arm antibody (antibody, human IgG1, kappa, L234A L235A, N297A, name in Kabat numbering)
# heavy: B1 heavy with N31I, W52K
# chain: B1 chain
# light: B1 light
# notes: one-arm antibody
# B8: CE115HA000 K52Y one-arm antibody (antibody, human IgG1, kappa, L234A L235A, N297A, name in Kabat numbering)
# heavy: B1 heavy with W52Y
# chain: B1 chain
# light: B1 light
# notes: one-arm antibody
# B9: CE115HA000 N31S one-arm antibody (antibody, human IgG1, kappa, L234A L235A, N297A, name in Kabat numbering)
# heavy: B1 heavy with N31S, W52K
# chain: B1 chain
# light: B1 light
# notes: one-arm antibody
# B10: CE115HA000 K52bA one-arm antibody (antibody, human IgG1, kappa, L234A L235A, N297A, name in Kabat numbering)
# heavy: B1 heavy with W52K, K54A
# chain: B1 chain
# light: B1 light
# notes: one-arm antibody
# B11: CE115HA000 K64D one-arm antibody (antibody, human IgG1, kappa, L234A L235A, N297A, name in Kabat numbering)
# heavy: B1 heavy with W52K, K67D
# chain: B1 chain
# light: B1 light
# notes: one-arm antibody
# B12: CE115HA000 N31W one-arm antibody (antibody, human IgG1, kappa, L234A L235A, N297A, name in Kabat numbering)
# heavy: B1 heavy with N31W, W52K
# chain: B1 chain
# light: B1 light
# notes: one-arm antibody
# B13: CE115HA000 N31K one-arm antibody (antibody, human IgG1, kappa, L234A L235A, N297A, name in Kabat numbering)
# heavy: B1 heavy with N31K, W52K
# chain: B1 chain
# light: B1 light
# notes: one-arm antibody
# B14: CE115HA000 N53I one-arm antibody (antibody, human IgG1, kappa, L234A L235A, N297A, name in Kabat numbering)
# heavy: B1 heavy with W52K, N56I
# chain: B1 chain
# light: B1 light
# notes: one-arm antibody
# B15: CE115HA000 N54D one-arm antibody (antibody, human IgG1, kappa, L234A L235A, N297A, name in Kabat numbering)
# heavy: B1 heavy with W52K, N57D
# chain: B1 chain
# light: B1 light
# notes: one-arm antibody
# B16: CE115HA000 N53H one-arm antibody (antibody, human IgG1, kappa, L234A L235A, N297A, name in Kabat numbering)
# heavy: B1 heavy with W52K, N56H
# chain: B1 chain
# light: B1 light
# notes: one-arm antibody
# B17: CE115HA000 N53K one-arm antibody (antibody, human IgG1, kappa, L234A L235A, N297A, name in Kabat numbering)
# heavy: B1 heavy with W52K, N56K
# chain: B1 chain
# light: B1 light
# notes: one-arm antibody
# B18: CE115HA000 N53A one-arm antibody (antibody, human IgG1, kappa, L234A L235A, N297A, name in Kabat numbering)
# heavy: B1 heavy with W52K, N56A
# chain: B1 chain
# light: B1 light
# notes: one-arm antibody
# B19: CE115HA000 N54A one-arm antibody (antibody, human IgG1, kappa, L234A L235A, N297A, name in Kabat numbering)
# heavy: B1 heavy with W52K, N57A
# chain: B1 chain
# light: B1 light
# notes: one-arm antibody
# B20: CE115HA000 N31Q one-arm antibody (antibody, human IgG1, kappa, L234A L235A, N297A, name in Kabat numbering)
# heavy: B1 heavy with N31Q, W52K
# chain: B1 chain
# light: B1 light
# notes: one-arm antibody
# B21: CE115HA000 N31R one-arm antibody (antibody, human IgG1, kappa, L234A L235A, N297A, name in Kabat numbering)
# heavy: B1 heavy with N31R, W52K
# chain: B1 chain
# light: B1 light
# notes: one-arm antibody
# B22: CE115HA000 K52bL one-arm antibody (antibody, human IgG1, kappa, L234A L235A, N297A, name in Kabat numbering)
# heavy: B1 heavy with W52K, K54L
# chain: B1 chain
# light: B1 light
# notes: one-arm antibody
# B23: CE115HA000 N31Y one-arm antibody (antibody, human IgG1, kappa, L234A L235A, N297A, name in Kabat numbering)
# heavy: B1 heavy with N31Y, W52K
# chain: B1 chain
# light: B1 light
# notes: one-arm antibody
# B24: CE115HA000 N31F one-arm antibody (antibody, human IgG1, kappa, L234A L235A, N297A, name in Kabat numbering)
# heavy: B1 heavy with N31F, W52K
# chain: B1 chain
# light: B1 light
# notes: one-arm antibody
# B25: CE115HA000 K52bN one-arm antibody (antibody, human IgG1, kappa, L234A L235A, N297A, name in Kabat numbering)
# heavy: B1 heavy with W52K, K54N
# chain: B1 chain
# light: B1 light
# notes: one-arm antibody
# B26: CE115HA000 N53D one-arm antibody (antibody, human IgG1, kappa, L234A L235A, N297A, name in Kabat numbering)
# heavy: B1 heavy with W52K, N56D
# chain: B1 chain
# light: B1 light
# notes: one-arm antibody
# B27: CE115HA000 K64E one-arm antibody (antibody, human IgG1, kappa, L234A L235A, N297A, name in Kabat numbering)
# heavy: B1 heavy with W52K, K67E
# chain: B1 chain
# light: B1 light
# notes: one-arm antibody
# B28: CE115HA000 K52bD one-arm antibody (antibody, human IgG1, kappa, L234A L235A, N297A, name in Kabat numbering)
# heavy: B1 heavy with W52K, K54D
# chain: B1 chain
# light: B1 light
# notes: one-arm antibody
# B29: CE115HA000 K52bQ one-arm antibody (antibody, human IgG1, kappa, L234A L235A, N297A, name in Kabat numbering)
# heavy: B1 heavy with W52K, K54Q
# chain: B1 chain
# light: B1 light
# notes: one-arm antibody
# B30: CE115HA000 N31H one-arm antibody (antibody, human IgG1, kappa, L234A L235A, N297A, name in Kabat numbering)
# heavy: B1 heavy with N31H, W52K
# chain: B1 chain
# light: B1 light
# notes: one-arm antibody
# B31: CE115HA000 N31D one-arm antibody (antibody, human IgG1, kappa, L234A L235A, N297A, name in Kabat numbering)
# heavy: B1 heavy with N31D, W52K
# chain: B1 chain
# light: B1 light
# notes: one-arm antibody
# B32: CE115HA000 K64A one-arm antibody (antibody, human IgG1, kappa, L234A L235A, N297A, name in Kabat numbering)
# heavy: B1 heavy with W52K, K67A
# chain: B1 chain
# light: B1 light
# notes: one-arm antibody
# B33: CE115HA000 N31A one-arm antibody (antibody, human IgG1, kappa, L234A L235A, N297A, name in Kabat numbering)
# heavy: B1 heavy with N31A, W52K
# chain: B1 chain
# light: B1 light
# notes: one-arm antibody
# Target: T1, CD3 epsilon homodimer protein (UniProt P07766 23-126)
# T1 construct: also called CD3 (CD3 epsilon)
# Assay: SPR Biacore T200, antibody over immobilised CD3e homodimer;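 further: CD3 epsilon homodimer amine-coupled on a CM4 chip, run at 25 °C in HBS-EP+, Z = bound amount of each single-residue H chain variant over that of the parent antibody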
# T1 sequence (P07766 23-126): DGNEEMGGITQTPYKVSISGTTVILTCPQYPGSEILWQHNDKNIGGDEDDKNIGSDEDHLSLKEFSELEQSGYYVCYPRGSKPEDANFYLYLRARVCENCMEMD
row,ratio of amounts bound (Z=Y/X vs CE115HA000),Binder
1,0.22,B1
2,0.74,B2
3,0.5,B3
4,1.11,B4
5,0.68,B5
6,0.39,B6
7,0.81,B7
8,0.18,B8
9,0.81,B9
10,0.67,B10
11,0.72,B11
12,0.63,B12
13,1.01,B13
14,0.68,B14
15,0.62,B15
16,0.76,B16
17,0.78,B17

row,ratio of amounts bound (Z=Y/X vs CE115HA000),Binder
1,0.7,B18
2,0.85,B19
3,0.49,B20
4,1.14,B21
5,0.61,B22
6,0.64,B23
7,0.62,B24
8,0.27,B25
9,0.39,B26
10,0.74,B27
11,0.27,B28
12,0.6,B29
13,0.68,B30
14,0.37,B31
15,0.82,B32
16,0.5,B33
